In article doi:10.1101/411223 (bioRxiv, 2018):

T1: Kap114p (Δ899-956) (S. cerevisiae, UniProt P53067 1-1004, Δ899-956)
T1 sequence (looked up): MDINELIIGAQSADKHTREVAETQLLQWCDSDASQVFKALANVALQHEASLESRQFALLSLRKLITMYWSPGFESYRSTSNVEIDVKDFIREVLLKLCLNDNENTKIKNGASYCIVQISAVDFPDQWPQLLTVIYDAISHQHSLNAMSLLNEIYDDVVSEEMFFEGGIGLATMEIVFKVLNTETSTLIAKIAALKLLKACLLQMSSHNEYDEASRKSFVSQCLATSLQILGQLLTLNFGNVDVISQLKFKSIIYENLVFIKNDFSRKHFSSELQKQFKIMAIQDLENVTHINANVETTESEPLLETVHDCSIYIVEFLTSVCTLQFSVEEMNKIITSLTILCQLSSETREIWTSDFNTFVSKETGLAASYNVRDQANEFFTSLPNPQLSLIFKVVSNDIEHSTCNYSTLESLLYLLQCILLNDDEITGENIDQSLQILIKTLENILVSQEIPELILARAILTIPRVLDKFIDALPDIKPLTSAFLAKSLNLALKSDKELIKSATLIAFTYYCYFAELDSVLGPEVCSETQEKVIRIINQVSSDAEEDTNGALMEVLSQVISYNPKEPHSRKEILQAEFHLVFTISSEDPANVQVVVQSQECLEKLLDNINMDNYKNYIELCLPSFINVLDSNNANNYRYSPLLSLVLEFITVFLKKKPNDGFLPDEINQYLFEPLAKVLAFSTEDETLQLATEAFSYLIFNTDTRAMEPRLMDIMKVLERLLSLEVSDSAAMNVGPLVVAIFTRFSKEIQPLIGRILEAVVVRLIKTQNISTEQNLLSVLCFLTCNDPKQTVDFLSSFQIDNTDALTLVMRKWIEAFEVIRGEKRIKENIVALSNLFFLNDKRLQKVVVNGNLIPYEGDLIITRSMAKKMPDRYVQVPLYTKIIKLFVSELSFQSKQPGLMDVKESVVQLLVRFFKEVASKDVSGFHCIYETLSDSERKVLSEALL

T2: Kap114p (Δ347-371) (S. cerevisiae, UniProt P53067 1-1004, Δ347-371)
T2 sequence (looked up): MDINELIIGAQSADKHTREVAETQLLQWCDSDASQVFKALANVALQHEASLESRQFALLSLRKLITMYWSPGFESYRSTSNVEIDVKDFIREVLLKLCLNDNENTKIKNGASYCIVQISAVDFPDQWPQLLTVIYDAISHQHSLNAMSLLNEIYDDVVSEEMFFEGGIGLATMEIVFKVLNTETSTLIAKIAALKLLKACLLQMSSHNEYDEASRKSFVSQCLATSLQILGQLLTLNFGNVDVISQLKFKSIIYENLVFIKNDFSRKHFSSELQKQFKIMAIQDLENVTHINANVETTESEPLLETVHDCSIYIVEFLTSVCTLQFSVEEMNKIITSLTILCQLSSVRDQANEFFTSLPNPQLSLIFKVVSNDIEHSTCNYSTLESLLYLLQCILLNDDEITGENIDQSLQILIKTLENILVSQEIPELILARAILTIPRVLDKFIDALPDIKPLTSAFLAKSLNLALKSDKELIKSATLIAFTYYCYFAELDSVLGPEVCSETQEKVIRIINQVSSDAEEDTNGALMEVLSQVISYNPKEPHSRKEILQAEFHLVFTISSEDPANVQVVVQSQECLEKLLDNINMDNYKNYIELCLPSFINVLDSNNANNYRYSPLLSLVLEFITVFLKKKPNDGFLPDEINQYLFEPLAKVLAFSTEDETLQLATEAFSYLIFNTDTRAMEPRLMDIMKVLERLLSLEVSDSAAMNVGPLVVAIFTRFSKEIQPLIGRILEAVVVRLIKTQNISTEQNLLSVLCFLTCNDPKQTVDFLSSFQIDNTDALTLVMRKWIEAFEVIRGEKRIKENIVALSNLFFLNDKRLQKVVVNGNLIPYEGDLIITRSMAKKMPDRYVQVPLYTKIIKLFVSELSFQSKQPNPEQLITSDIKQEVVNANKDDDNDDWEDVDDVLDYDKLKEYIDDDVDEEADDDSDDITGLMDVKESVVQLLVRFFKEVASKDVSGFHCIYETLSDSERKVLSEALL


What was measured:
[1] = target: His-tagged RanQ69L, P62826; assay: SEC; conditions: remark: other sources report otherwise
Kap114p (Δ899-956) = target: T1, Kap114p (Δ899-956); assay: pull-down
Kap114p (Δ347-371) = target: T2, Kap114p (Δ347-371); assay: pull-down

Binder | stoichiometry N [1] | binding result (Kap114p (Δ899-956)) | binding result (Kap114p (Δ347-371))
Kap114p, P53067 1-1004 (natural protein) MDINELIIGAQSADKHTREVAETQLLQWCDSDASQVFKALANVALQHEASLESRQFALLSLRKLITMYWSPGFESYRSTSNVEIDVKDFIREVLLKLCLNDNENTKIKNGASYCIVQISAVDFPDQWPQLLTVIYDAISHQHSLNAMSLLNEIYDDVVSEEMFFEGGIGLATMEIVFKVLNTETSTLIAKIAALKLLKACLLQMSSHNEYDEASRKSFVSQCLATSLQILGQLLTLNFGNVDVISQLKFKSIIYENLVFIKNDFSRKHFSSELQKQFKIMAIQDLENVTHINANVETTESEPLLETVHDCSIYIVEFLTSVCTLQFSVEEMNKIITSLTILCQLSSETREIWTSDFNTFVSKETGLAASYNVRDQANEFFTSLPNPQLSLIFKVVSNDIEHSTCNYSTLESLLYLLQCILLNDDEITGENIDQSLQILIKTLENILVSQEIPELILARAILTIPRVLDKFIDALPDIKPLTSAFLAKSLNLALKSDKELIKSATLIAFTYYCYFAELDSVLGPEVCSETQEKVIRIINQVSSDAEEDTNGALMEVLSQVISYNPKEPHSRKEILQAEFHLVFTISSEDPANVQVVVQSQECLEKLLDNINMDNYKNYIELCLPSFINVLDSNNANNYRYSPLLSLVLEFITVFLKKKPNDGFLPDEINQYLFEPLAKVLAFSTEDETLQLATEAFSYLIFNTDTRAMEPRLMDIMKVLERLLSLEVSDSAAMNVGPLVVAIFTRFSKEIQPLIGRILEAVVVRLIKTQNISTEQNLLSVLCFLTCNDPKQTVDFLSSFQIDNTDALTLVMRKWIEAFEVIRGEKRIKENIVALSNLFFLNDKRLQKVVVNGNLIPYEGDLIITRSMAKKMPDRYVQVPLYTKIIKLFVSELSFQSKQPNPEQLITSDIKQEVVNANKDDDNDDWEDVDDVLDYDKLKEYIDDDVDEEADDDSDDITGLMDVKESVVQLLVRFFKEVASKDVSGFHCIYETLSDSERKVLSEALL | 1 |  | 
GST-fused yTBP (61-240) (domain or fragment, S. cerevisiae, UniProt P13393 61-240, looked up) SGIVPTLQNIVATVTLGCRLDLKTVALHARNAEYNPKRFAAVIMRIREPKTTALIFASGKMVVTGAKSEDDSKLASRKYARIIQKIGFAAKFTDFKIQNIVGSCDVKFPIRLEGLAFSHGTFSSYEPELFPGLIYRMVKPKIVLLIFVSGKIVLTGAKQREEIYQAFEAIYPVLSEFRKM |  | binds | binds
